Where only a bound is given, the exact number is not on record here.

One experiment addresses H3K4me2 (1-21). As to the kind of experiment: ITC; iTC200, 25 °C, stirring 800 rpm; sample 150–260 μM, titrant 1.5–4 mM; one-site binding model; the figure legends on these data give mean ± S.D. (n = 4). (In ITC the heat of successive injections is recorded.)
Another experiment has as its target H3K14ac T6C. The description is as above.
The target of a further experiment is H3K4me3 (1-21). The experiment is described as above.
In the next experiment the target is H3K4me1 (1-21). The description is as above.
The target in a further experiment is H3T6C (1-21). The description is as above.
H3T6C (1-21), sequence (peptide, as listed by the source T6C (stands in the printed letters)): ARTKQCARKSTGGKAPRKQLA
For a further experiment, the target named is H3K4me1K14ac. The description is as above.
In another experiment the target is H3K4me3K14ac. Described as above.
In another experiment the target is H3K4me2K14ac. Described as above.
The target in experiment [1] is BAZ2B PHD–BRD (human) (UniProt Q9UIF8). As to the kind of experiment: ITC; iTC200, 25 °C; 150–260 μM sample, 1.5–4 mM titrant; one-site binding model; n = 4.
BAZ2B PHD–BRD (human), sequence (Q9UIF8 whole entry, the tested form may be a part): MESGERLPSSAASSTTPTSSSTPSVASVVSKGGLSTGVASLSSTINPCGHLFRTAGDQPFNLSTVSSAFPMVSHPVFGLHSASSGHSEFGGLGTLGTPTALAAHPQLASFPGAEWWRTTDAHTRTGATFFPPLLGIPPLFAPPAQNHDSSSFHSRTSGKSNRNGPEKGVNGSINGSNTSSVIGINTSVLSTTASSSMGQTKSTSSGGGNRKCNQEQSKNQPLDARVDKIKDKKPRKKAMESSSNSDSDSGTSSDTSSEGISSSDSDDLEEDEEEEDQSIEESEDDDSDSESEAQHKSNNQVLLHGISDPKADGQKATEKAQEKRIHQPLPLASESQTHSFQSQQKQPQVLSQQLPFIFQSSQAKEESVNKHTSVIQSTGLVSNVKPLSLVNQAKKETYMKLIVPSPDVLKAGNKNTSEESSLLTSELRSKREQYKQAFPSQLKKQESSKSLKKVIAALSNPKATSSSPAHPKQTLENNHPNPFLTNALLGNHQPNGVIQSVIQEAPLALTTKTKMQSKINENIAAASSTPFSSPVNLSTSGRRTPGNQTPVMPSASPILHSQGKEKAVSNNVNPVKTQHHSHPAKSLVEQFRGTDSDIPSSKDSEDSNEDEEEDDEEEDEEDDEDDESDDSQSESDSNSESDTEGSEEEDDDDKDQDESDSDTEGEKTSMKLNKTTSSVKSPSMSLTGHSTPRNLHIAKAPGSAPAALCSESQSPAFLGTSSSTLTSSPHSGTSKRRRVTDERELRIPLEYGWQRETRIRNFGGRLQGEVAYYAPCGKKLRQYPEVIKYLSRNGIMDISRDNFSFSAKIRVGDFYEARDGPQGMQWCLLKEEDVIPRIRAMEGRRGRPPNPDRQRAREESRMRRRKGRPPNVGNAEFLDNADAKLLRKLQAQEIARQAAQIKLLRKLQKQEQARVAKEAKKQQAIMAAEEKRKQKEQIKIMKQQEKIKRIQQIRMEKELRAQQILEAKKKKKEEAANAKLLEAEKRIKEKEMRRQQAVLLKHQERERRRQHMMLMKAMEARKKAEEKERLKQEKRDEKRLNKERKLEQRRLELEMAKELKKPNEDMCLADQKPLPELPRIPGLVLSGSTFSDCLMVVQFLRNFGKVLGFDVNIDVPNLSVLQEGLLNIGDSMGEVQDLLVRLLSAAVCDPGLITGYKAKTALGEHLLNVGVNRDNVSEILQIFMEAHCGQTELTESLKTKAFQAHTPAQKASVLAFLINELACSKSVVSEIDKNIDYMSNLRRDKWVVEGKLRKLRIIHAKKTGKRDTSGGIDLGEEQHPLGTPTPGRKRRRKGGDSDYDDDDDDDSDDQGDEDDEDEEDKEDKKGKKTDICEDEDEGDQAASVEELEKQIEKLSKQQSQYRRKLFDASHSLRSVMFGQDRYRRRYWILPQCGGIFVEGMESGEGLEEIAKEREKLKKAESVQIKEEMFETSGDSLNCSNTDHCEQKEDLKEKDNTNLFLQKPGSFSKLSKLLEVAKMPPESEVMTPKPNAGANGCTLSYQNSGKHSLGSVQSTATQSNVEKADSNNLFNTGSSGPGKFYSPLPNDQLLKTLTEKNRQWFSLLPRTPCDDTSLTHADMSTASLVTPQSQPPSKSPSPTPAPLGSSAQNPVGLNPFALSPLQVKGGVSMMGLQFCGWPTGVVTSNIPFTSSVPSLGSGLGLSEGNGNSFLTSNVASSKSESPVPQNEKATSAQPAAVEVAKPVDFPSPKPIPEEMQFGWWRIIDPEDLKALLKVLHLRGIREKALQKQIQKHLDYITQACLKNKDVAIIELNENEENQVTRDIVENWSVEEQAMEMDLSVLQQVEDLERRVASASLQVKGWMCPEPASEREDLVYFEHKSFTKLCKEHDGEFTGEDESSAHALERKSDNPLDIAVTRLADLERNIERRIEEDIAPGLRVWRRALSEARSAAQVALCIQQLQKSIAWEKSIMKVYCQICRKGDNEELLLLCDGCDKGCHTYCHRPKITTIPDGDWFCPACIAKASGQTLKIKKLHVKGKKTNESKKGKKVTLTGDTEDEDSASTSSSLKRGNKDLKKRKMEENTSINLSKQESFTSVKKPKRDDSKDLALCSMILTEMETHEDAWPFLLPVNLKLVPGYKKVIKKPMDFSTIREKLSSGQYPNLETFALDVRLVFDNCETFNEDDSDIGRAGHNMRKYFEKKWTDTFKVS
Another experiment addresses BAZ2B PHD domain (human) (UniProt Q9UIF8). The description is as above.
Experiment [2] has as its target BAZ2B PHD–BRD (human) (UniProt Q9UIF8). As to the kind of experiment: NMR titration; H3K14ac titrated into 15N-labelled PHD–BRD at peptide/protein ratios 0.5, 1, 1.5, 2 and 4; Kd estimated apart from BRD and from PHD residues.

BAZ2B PHD-BRD WT, sequence (Q9UIF8 whole entry, the tested form may be a part): as above
BAZ2B PHD domain (human), sequence (Q9UIF8 whole entry, the tested form may be a part): as above

On to “BAZ2B PHD WT (from UniProt Q9UIF8 1-2168) (domain or fragment)”, for which the Kd (in general, the equilibrium constant for the complex coming apart) is 12.4 µM in the experiment with H3K4me2 (1-21); 27 µM in the experiment with H3K14ac T6C; 23.9 µM in the experiment with H3K4me3 (1-21); 10.2 µM with H3K4me1 (1-21); 33.2 µM with H3T6C (1-21). The stoichiometry N (as a rule, the number of molecules, sites or subunits per partner or assembly) was determined as 0.71 with H3K4me2 (1-21); 4.86 with H3K14ac T6C; 0.73 with H3K4me3 (1-21); 0.82 with H3K4me1 (1-21); 0.74 with H3T6C (1-21).

As to “BAZ2B PHD-BRD WT (from UniProt Q9UIF8 1-2168) (domain or fragment)”, the dissociation constant (Kd) came to 123 µM in the experiment with H3K4me2 (1-21); 26.9 µM with H3K4me1K14ac; 6.99 µM with H3K4me3K14ac; 50.4 µM in the experiment with H3K14ac T6C; 18.9 µM in the experiment with H3K4me2K14ac; 130 µM in the experiment with H3K4me3 (1-21). Also, the results for the dissociation constant (Kd) with H3K4me1 (1-21) and with H3T6C (1-21) were 88.4 µM and 148 µM, respectively. Besides, the stoichiometry N with H3K4me2 (1-21) worked out at 1.76; in the experiment with H3K4me1K14ac, 0.54; in the experiment with H3K4me3K14ac, 0.54; with H3K14ac T6C, 2.92; in the experiment with H3K4me2K14ac it was 0.45; in the experiment with H3K4me3 (1-21), 1.89. Besides, the results for the stoichiometry N with H3K4me1 (1-21) and in the experiment with H3T6C (1-21) were 1.94 and 1.59, respectively.

As to “histone H3(1–10aa) peptide (from UniProt P68431 2-11)”, the values for the Kd with BAZ2B PHD–BRD (human) [1] and with BAZ2B PHD domain (human) were 115 µM and 23.1 µM, respectively.

“histone H3(1–21aa) peptide, unmodified (from UniProt P68431 2-22)”: the values for the dissociation constant Kd with BAZ2B PHD–BRD (human) [1] and with BAZ2B PHD domain (human) were 54 µM and 5.78 µM, respectively.

As to “histone H3(11–21aa) peptide (from UniProt P68431 12-22)”, the results for the equilibrium dissociation constant (Kd) with BAZ2B PHD–BRD (human) [1] and with BAZ2B PHD domain (human) were more than 2000 µM and more than 4000 µM, respectively.

In the case of “histone H3(1–21aa)K14ac peptide (from UniProt P68431 2-22)”, in the experiment with BAZ2B PHD–BRD (human) [2], the Kd estimated from BRD residues is more than 8 µM and the Kd estimated from PHD residues is more than 190 µM.

(Values after article PMC5663869.)
